From patent publication US20170275359A1 (Genentech, published 2017)
Residue numbers refer to the chain shown, from its start.

Assays:
human EphrinB2-His = biological target: T1, human EphrinB2-His (human, UniProt P52799 28-229, limits assumed); assay: SPR BIAcore-3000, antibody coupled to CM5 chip (~500 RU), EphrinB2-His injected, 25 C
T1 construct: Soluble His-tagged protein; also called His-tagged human EphrinB2; hEphrinB2; not shown: His tag
Protocol: (§1) To determine the binding affinity of mouse anti-ephrinB2 Mabs, surface plasmon resonance (SRP) measurement with a BIAcore™-3000 was used (BIAcore, Inc., Piscataway, N.J.). Briefly, carboxymethylated dextran biosensor chips (CMS, BIAcore Inc.) were activated with N-ethyl-N′- (3-dimethylaminopropyl)-carbodiimide hydrochloride (EDC) and N-hydroxysuccinimide (NHS) according to the supplier's instructions. Anti-EphrinB2 antibody was diluted with 10 mM sodium acetate, pH 4.8, into 5 ug/ml before injection at a flow rate of 5 ul/minute to achieve approximately 500 response units (RU) of coupled antibody. Next, 1M ethanolamine was injected to block unreacted groups. For kinetics measurements, two-fold serial dilutions of either human or murine EphrinB2-His molecules (0.7 nM to 500 nM) were injected in PBS with 0.05% Tween 20 at 25° C. at a flow rate of 25 ul/min. Association rates (kₒₙ) and dissociation rates (koff) were calculated using a simple one-to-one Langmuir binding model (BlAcore Evaluation Software version 3.2). The equilibrium dissociation constant (Kd) was calculated as the ratio koff/kₒₙ. “NA” signifies that the measurement was not performed.

murine EphrinB2-His = biological target: T2, murine EphrinB2-His (murine, UniProt P52800 29-232, limits assumed); assay: as above
T2 construct: Soluble His-tagged protein; also called His-tagged murine EphrinB2; murine antigen; not shown: His tag
Protocol: as §1

T1 sequence (P52799 28-229 limits assumed): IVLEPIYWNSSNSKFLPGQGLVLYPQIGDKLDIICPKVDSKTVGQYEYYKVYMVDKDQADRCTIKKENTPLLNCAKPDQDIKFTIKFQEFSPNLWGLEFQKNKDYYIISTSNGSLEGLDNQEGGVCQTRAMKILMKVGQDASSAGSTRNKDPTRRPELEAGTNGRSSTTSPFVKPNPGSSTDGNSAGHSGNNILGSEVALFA
T2 sequence (P52800 29-232 limits assumed): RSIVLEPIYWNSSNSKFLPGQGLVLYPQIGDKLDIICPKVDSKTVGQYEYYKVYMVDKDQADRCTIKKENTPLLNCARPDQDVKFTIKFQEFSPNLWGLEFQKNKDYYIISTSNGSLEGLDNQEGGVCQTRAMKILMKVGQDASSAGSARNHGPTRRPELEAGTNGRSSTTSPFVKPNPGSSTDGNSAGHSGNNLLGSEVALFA

B1: anti-EphrinB2 monoclonal antibody clone 31.19 (antibody, V domains shown)
VH: EVQLVESGGGLVQPGGSLRLSCAASGFTITGSWIHWVRQAPGKGLEWVAVIYPNNGATDYADSVKGRFTISADTSKNTAYLQMNSLRAEDTAVYYCARTSAWAQLGAMDYWGQGTLVT
VL: DIQMTQSPSSLSASVGDRVTITCRASQDVSTAVAWYQQKPGKAPKLLIYSASFLYSGVPSRFSGSGSGTDFTLTISSLQPEDFATYYCQQSYTTPPTFGQGTKVEIKR
notes: Synthetic phage antibody on the humanized 4D5 framework; also called YW31.19; 31.19 antibody
B1 gave a Kd (human EphrinB2-His) of 5.2 nM and a Kd (murine EphrinB2-His) of 0.23 nM.

B2: anti-EphrinB2 monoclonal antibody clone 31.19.1D8 (antibody, V domains shown)
VH: B1 VH
VL: DIQMTQSPSSLSASVGDRVTITCRASQDVDSSLAWYQQKPGKAPKLLIYAASNLESGVPSRFSGSGSGTDFTLTISSLQPEDFATYYCQQSDDNPFTFGQGTKVEIKR
notes: also called YW31.19.1D8; 31.19.1D8 antibody
B2 showed a Kd (human EphrinB2-His) of 0.07 nM and a Kd (murine EphrinB2-His) of 0.017 nM.

B3: anti-EphrinB2 monoclonal antibody clone 31.19.2D3 (antibody, V domains shown)
VH: B1 VH with I29V, T30S, G31S, S32G, Y52F, P53H, N55K, A57G
VL: B1 VL with Q89E, S91T, Y92D, T93S
notes: also called YW31.19.2D3; 31.19.2D3 antibody
Work on B3 yielded a Kd (human EphrinB2-His) of 0.08 nM and a Kd (murine EphrinB2-His) of 0.015 nM.
